Assay results taken from IntAct's records for PubMed 18432193.

B1: Protein draper (Drosophila melanogaster (Fruit fly)), Q9W0A0 (parent)
chain: MLPVILIACLAQLVLAQADLKDLDGPNICKRRELYNVDVVYTELQSFQERGSTWCVTFPPRCSTYRIKHRVVNKTKTIAKNRIVRDCCDGYIASAGECVPHCSEPCQHGRCISPEKCKCDHGYGGPACDINCPPGWYGRNCSMQCDCLNNAVCEPFSGDCECAKGYTGARCADICPEGFFGANCSEKCRCENGGKCHHVSGECQCAPGFTGPLCDMRCPDGKHGAQCQQDCPCQNDGKCQPETGACMCNPGWTGDVCANKCPVGSYGPGCQESCECYKGAPCHHITGQCECPPGYRGERCFDECQLNTYGFNCSMTCDCANDAMCDRANGTCICNPGWTGAKCAERICEANKYGLDCNRTCECDMEHTDLCHPETGNCQCSIGWSSAQCTRPCTFLRYGPNCELTCNCKNGAKCSPVNGTCLCAPGWRGPTCEESCEPGTFGQDCALRCDCQNGAKCEPETGQCLCTAGWKNIKCDRPCDLNHFGQDCAKVCDCHNNAACNPQNGSCTCAAGWTGERCERKCDTGKFGHDCAQKCQCDFNNSLACDATNGRCVCKQDWGGVHCETNCRSGYYGENCDKVCRCLNNSSCDPDSGNCICSAGWTGADCAEPCPPGFYGMECKERCPEILHGNKSCDHITGEILCRTGYIGLTCEHPCPAGLYGPGCKLKCNCEHGGECNHVTGQCQCLPGWTGSNCNESCPTDTYGQGCAQRCRCVHHKVCRKADGMCICETGWSGTRCDEVCPEGFYGEHCMNTCACPSANFQCHAAHGCVCRSGYTGDNCDELIASQRIADQSENSSRASVALTLVLMTLFACIIFAVFIYYRRRVSNLKTEIAHVHYTHDTNPPSWPPNHNFDNPVYGMQAETRLLPNNMRSKMNNFDQRSTMSTDYGDDCNASGRVGSYSINYNHDLLTKNLNADRTNPIVYNESLKEEHVYDEIKHKEGYKDPDEYDHLDYSRPSTSQKPHYHRMNDAMLNINQDEEKPSNVKNMTVLLNKPLPPTEPEPQHECFDNTNTNLDNVSTASPSSSPKFLK
partner: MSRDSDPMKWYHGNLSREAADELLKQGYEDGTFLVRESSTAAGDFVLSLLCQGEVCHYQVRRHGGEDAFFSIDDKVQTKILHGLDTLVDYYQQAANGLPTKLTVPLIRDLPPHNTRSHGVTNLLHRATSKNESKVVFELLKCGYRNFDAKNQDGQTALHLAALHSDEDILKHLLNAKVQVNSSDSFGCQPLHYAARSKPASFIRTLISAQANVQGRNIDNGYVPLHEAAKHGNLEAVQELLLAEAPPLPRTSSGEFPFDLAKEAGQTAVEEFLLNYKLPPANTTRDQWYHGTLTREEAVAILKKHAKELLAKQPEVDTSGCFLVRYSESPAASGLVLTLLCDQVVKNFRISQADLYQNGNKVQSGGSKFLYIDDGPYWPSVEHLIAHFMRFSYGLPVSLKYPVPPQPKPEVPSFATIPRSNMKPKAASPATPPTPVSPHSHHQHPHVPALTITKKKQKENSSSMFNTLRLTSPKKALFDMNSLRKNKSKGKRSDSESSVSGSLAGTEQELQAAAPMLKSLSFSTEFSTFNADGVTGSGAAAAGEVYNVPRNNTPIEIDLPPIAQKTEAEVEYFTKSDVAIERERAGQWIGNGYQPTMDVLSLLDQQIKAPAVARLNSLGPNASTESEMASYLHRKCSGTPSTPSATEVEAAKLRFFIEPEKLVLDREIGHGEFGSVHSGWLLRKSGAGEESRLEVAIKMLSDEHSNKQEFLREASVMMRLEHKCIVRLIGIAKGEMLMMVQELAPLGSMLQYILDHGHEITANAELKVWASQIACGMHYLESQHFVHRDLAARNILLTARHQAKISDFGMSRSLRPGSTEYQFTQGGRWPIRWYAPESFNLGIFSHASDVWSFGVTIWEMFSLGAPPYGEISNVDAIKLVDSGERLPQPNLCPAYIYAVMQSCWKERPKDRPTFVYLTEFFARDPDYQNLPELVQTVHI

Variants of: B1
Details: with shark_drome Shark

| Variant | effect of a mutation on the interaction |
| --- | --- |
| Y949F | decreasing interaction |

Variants of: B1
Details: with shark_drome Shark
Remark: another data set of the same source

| Variant | effect of a mutation on the interaction |
| --- | --- |
| Y949F | disrupting interaction |
| Y934F | decreasing interaction |
